Data reported in article PMC10694592.

Biological target: FITC-labeled 45-mer peptide derived from the C-terminal region of IKKβ
Test: fluorescence polarisation; fluorescence anisotropy binding assay with an FITC-labeled 45-mer peptide of IKKβ and bacterially expressed full-length NEMO proteins; conditions not told here (refs 13, 26)

Chain of full-length WT NEMO (aa 1-419), bacterially expressed (Q9Y6K9 whole entry, the tested form may be a part): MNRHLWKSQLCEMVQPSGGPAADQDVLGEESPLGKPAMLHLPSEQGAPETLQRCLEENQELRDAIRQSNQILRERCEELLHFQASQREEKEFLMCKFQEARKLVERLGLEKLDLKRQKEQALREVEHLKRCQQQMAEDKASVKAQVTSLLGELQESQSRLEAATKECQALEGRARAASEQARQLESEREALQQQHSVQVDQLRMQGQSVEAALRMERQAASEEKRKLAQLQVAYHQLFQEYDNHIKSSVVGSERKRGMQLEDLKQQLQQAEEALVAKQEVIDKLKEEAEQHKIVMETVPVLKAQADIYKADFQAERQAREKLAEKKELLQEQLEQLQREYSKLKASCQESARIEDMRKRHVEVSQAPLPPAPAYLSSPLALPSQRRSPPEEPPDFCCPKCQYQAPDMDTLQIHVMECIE

Kd [nM]	Substance
33	OPTN-IVD-NEMO (aa 1-419), bacterially expressed (from UniProt Q9Y6K9 1-419) (natural protein)
4.7	full-length WT NEMO (aa 1-419), bacterially expressed (from UniProt Q9Y6K9 1-419) (natural protein)
